Assay results as given in publication PMC10037368 (2023).

Biological target: Spike glycoprotein (Wuhan-Hu-1) RBD (Severe acute respiratory syndrome …, UniProt P0DTC2)
Assay: ELISA

B1: Sb92 sherpabody (designed binder)
chain: EEYIAVGDFFSTDPADLTFKKGEILLVIERGTSAGDGWWIAKDAKGNEGLVPRTYLEPYS
- Kd: 30 nM
